Test results taken from patent EP1298214A2, “Plant thioesterases” (Calgene LLC, priority 1990, dated 1991).

What was measured:
[1] = tested on: Cuphea C10 acyl-ACP thioesterase; assay: Cuphea thioesterase substrate specificity at the hydroxyapatite stage (Example 9A); assay type: biochemical, Cuphea hookeriana; details: hydroxyapatite stage in purification
Description: Following the same general procedures as outlined in Example 1, to assay for C10 thioesterase activity, the following mixture is incubated at 30° for 10-60 min: 50µl sample to be tested in the same or similar "extraction buffer" described in Example 9A, and approximately 250pmol of [^14C]-radiolabeled acyl-ACP substrate, (usually decanoyl-ACP is labeled in the carboxylate group to 50-60µCi/µmol) in a total volume of […], for a final decanoyl-ACP concentration of 0.5-5.0µM, typically 5.0µM. The reaction is stopped by adding 0.5ml 10% (v/v) cold (4°) acetic acid and placing the reaction mixture on ice for a few minutes. The fatty acid product of the hydrolytic enzyme action is extracted away from the unhydrolyzed substrate by adding 2ml diethyl ether and mixing vigorously. The ether is transferred to 5ml scintillation fluid for scintillation counting. Additional ether extracts may be performed to recover remaining traces of product for more accurate quantitation of the activity if desired.
The resulting preparation is then subjected to hydroxyapatite column chromatography. The following method applies to ammonium sulfate fraction from 100g fresh weight of starting seed tissue. The dialyzed ammonium sulfate fraction (35-40ml) is applied to a column of hydroxyapatite (2.5cm x 14cm bed height of Bio-Gel HTP from Bio-Rad Inc.; Richmond, CA, catalog no. 130-0420), equilibrated in 50mM KH2PO4-KOH pH 6.9, 10% (v/v) glycerol, 4mM 2-mercaptoethanol. The column is then washed (flow rate 1.5ml/min throughout) with 280ml of the same buffer. Elution is accomplished with a 580ml linear gradient from these conditions to 350mM KH2PO4-KOH pH 6.9, 10% (v/v) glycerol, 4mM 2-mercaptoethanol, collecting fractions of 12ml volume. The eluted fractions are assayed for hydrolase activity using decanoyl-ACP as substrate. […]
The substrate specificity of Cuphea C10 acyl-ACP thioesterase towards medium-chain acyl-ACP's has been determined at the hydroxyapatite stage in purification, as described in Example 9A: Table 6

[2] = target: T1, Bay C12-preferring acyl-ACP thioesterase (Umbellularia californica, UniProt Q41635); assay: Bay thioesterase substrate specificity as a function of chain length, ammonium sulfate fraction; assay type: biochemical; design: The cotyledons from such seeds are dissected from the other seed parts and stored frozen at -70°; This comprises the source tissue for enzyme extraction; from tissue; host or cells: immature seed cotyledons of Umbellularia californica; details: C8-ACP activity set to 1.0; label is acyl chain length of the acyl-ACP
T1 sequence (Q41635 84-382): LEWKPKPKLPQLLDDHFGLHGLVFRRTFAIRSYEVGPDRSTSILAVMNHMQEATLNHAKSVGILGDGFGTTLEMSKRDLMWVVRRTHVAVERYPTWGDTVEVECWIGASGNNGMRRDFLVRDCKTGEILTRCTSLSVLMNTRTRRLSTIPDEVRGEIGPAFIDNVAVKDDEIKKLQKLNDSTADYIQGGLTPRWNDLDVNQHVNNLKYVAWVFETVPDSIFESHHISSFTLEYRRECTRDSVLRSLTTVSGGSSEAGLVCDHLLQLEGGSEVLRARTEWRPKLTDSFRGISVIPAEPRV
Description: To assay for C12 thioesterase activity the following mixture is incubated at 30° for 30 min: "buffer" comprising 7mM KH2PO4-KOH pH 8, 20% v/v glycerol, 1mM dithiothreitol (DTT), 0.1% v/v Triton X100; sample to be tested for activity in the same or similar buffer as the "extraction buffer" described in Example 2; […] and final lauroyl-ACP concentration of 0.5µM. Lauroyl-ACP substrate is prepared according to the method of Rock et al (Methods in Enzymology (1981) 72:397-403), using ACP prepared from Escherichia coli by the method of Rock and Cronan (Methods in Enzymology (1981) 71:341-351). The laurate is radiolabeled in the carboxylate group at a specific radioactivity of 50-60µCi/µmol.
The reaction is stopped by adding 0.5ml cold (0°) 10% v/v acetic acid. The fatty acid product of the hydrolytic enzyme action is extracted away from the unhydrolyzed substrate by adding 1ml diethyl ether and mixing vigorously. After settling for a few minutes the upper ether layer is transferred to 5ml scintillation fluid for determination of radioactivity by liquid scintillation spectrometry. Additional ether extractions may be performed to recover remaining traces of the reaction product for more accurate quantitation of the enzyme activity if desired. The amount of ether-extracted radioactivity is a direct measure of C12-preferring acyl-ACP thioesterase activity, provided the amount of enzyme is not sufficient to hydrolyze more than about 25% of the substrate. With greater activity than this the relationship between radioactivity in the ether layer and the quantity of enzyme becomes markedly nonlinear. The enzyme preparation must then be diluted appropriately to bring the activity into the linear range of the assay.
The crude extract is subjected to ammonium sulfate fractionation as follows. Sufficient solid ammonium sulfate is gradually added with stirring over 30 min to achieve 70% saturation. The preparation is then stirred for a further 30 min. After centrifuging as described above, the pelleted material is resuspended in extraction buffer (2ml/g original tissue weight) and stirred for 10 min until dissolved. Ammonium sulfate is then added as before, but this time only sufficient to achieve 50% saturation. After centrifuging as before, the supernatant fraction is discarded. The pelleted material, which contains the C12-preferring acyl-ACP thioesterase, may be frozen by immersion in liquid nitrogen and then stored at -70° at this stage if desired. The resulting material is referred to as the "ammonium sulfate fraction." Very little of the C12-preferring acyl-ACP thioesterase activity is lost if the pellet is frozen very rapidly. […]

Row | Substance | Hydrolysis Activity (mean) [1] [pmol/min] | Relative Thioesterase Activity [2]
1 | 14:0-ACP | 4055 | 4.0
2 | 16:0-ACP |  | 4.7
3 | decanoyl-ACP [10:0-ACP] | 6950 | 2.7
4 | lauroyl-ACP [12:0-ACP] | 1032 | 24.0
